# T1: EsCas13d, nuclease-dead (Eubacterium siraeum, UniProt B0MS50, R295A;H300A;R849A;H854A)
# T1 sequence: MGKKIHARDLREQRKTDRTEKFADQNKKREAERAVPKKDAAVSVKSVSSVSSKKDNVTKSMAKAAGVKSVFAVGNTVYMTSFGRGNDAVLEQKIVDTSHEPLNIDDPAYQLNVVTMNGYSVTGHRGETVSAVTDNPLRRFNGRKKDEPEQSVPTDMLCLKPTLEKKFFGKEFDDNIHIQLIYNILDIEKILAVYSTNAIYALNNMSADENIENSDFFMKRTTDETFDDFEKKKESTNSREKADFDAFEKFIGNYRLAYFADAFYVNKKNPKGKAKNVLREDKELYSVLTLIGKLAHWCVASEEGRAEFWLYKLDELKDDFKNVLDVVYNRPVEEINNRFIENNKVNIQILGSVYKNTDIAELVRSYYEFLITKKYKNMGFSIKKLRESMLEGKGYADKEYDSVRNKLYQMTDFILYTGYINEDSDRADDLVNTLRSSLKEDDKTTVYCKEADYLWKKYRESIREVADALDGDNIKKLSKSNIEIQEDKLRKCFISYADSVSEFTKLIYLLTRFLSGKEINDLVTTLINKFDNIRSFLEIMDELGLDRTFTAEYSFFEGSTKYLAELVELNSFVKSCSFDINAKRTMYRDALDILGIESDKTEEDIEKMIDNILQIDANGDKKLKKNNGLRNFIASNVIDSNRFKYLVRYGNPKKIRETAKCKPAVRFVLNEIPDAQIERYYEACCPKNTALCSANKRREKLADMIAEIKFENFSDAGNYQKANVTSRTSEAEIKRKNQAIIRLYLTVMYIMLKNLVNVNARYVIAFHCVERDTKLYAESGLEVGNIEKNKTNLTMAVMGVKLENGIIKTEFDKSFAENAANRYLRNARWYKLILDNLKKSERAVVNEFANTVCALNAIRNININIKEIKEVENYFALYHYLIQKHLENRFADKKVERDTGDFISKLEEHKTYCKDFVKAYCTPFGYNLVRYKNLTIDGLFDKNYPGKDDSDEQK
# Molecular target: T1, EsCas13d, nuclease-dead
# Assay: crRNA (strand 1, pre-loaded); Mg2+; 40 mM Tris-HCl pH 7.5, 150 mM NaCl, 6 mM MgCl2, 1 mM DTT, 0.1% Tween-20, 0.2 mg/ml BSA; 25 C; 10 min per concentration, then washed
# Conditions: tags: His6-TwinStrep-SUMO cleaved; N-terminal SNAP kept (SNAP-Surface 488); label: 3' end held by stalled T7 RNA polymerase
row,Binder,Kd [µM]
1,"target 1 insU 3' of 4,insG 3' of 4 (mixed) RNA 1: CACCCGUGCAAAAAUGCAGGGGUCUAAAACUGAGCGGAUAACCUCUCUAUGG RNA 2: GGGAAUGGAUCCACAUCUACGAAUUCGUACCAUAGAGAGGUUAUCCGCUGUCACCGAGAUCGGAAGAGCACACGU",0.0089 ± 0.0008
2,"target 1 insA 3' of 21,insG 3' of 10 (mixed) RNA 1: CACCCGUGCAAAAAUGCAGGGGUCUAAAACUGAGCGGAUAACCUCUCUAUGG RNA 2: GGGAAUGGAUCCACAUCUACGAAUUCGUACCAAUAGAGAGGUUGAUCCGCUCACCGAGAUCGGAAGAGCACACGU",0.059 ± 0.024
3,"target 1 C2G,U10A (mixed) RNA 1: CACCCGUGCAAAAAUGCAGGGGUCUAAAACUGAGCGGAUAACCUCUCUAUGG RNA 2: GGGAAUGGAUCCACAUCUACGAAUUCGUACCAUAGAGAGGUAAUCCGCUGACCGAGAUCGGAAGAGCACACGU",0.0127 ± 0.0013
4,"target 1 del7,del20 (mixed) RNA 1: CACCCGUGCAAAAAUGCAGGGGUCUAAAACUGAGCGGAUAACCUCUCUAUGG RNA 2: GGGAAUGGAUCCACAUCUACGAAUUCGUACCUAGAGAGGUUAUCGCUCACCGAGAUCGGAAGAGCACACGU",0.039 ± 0.004
5,"target 1 insU 3' of 15,insA 3' of 5 (mixed) RNA 1: CACCCGUGCAAAAAUGCAGGGGUCUAAAACUGAGCGGAUAACCUCUCUAUGG RNA 2: GGGAAUGGAUCCACAUCUACGAAUUCGUACCAUAGAGUAGGUUAUCCGACUCACCGAGAUCGGAAGAGCACACGU",0.0217 ± 0.0021
6,"target 1 insG 3' of 21,insG 3' of 2 (mixed) RNA 1: CACCCGUGCAAAAAUGCAGGGGUCUAAAACUGAGCGGAUAACCUCUCUAUGG RNA 2: GGGAAUGGAUCCACAUCUACGAAUUCGUACCGAUAGAGAGGUUAUCCGCUCGACCGAGAUCGGAAGAGCACACGU",0.061 ± 0.013
7,"target 1 U3G,U11A (mixed) RNA 1: CACCCGUGCAAAAAUGCAGGGGUCUAAAACUGAGCGGAUAACCUCUCUAUGG RNA 2: GGGAAUGGAUCCACAUCUACGAAUUCGUACCAUAGAGAGGAUAUCCGCGCACCGAGAUCGGAAGAGCACACGU",0.0142 ± 0.0013
8,"target 1 A9U,A20C (mixed) RNA 1: CACCCGUGCAAAAAUGCAGGGGUCUAAAACUGAGCGGAUAACCUCUCUAUGG RNA 2: GGGAAUGGAUCCACAUCUACGAAUUCGUACCCUAGAGAGGUUUUCCGCUCACCGAGAUCGGAAGAGCACACGU",~0.053
9,"target 1 insA 3' of 11,insC 3' of 10 (mixed) RNA 1: CACCCGUGCAAAAAUGCAGGGGUCUAAAACUGAGCGGAUAACCUCUCUAUGG RNA 2: GGGAAUGGAUCCACAUCUACGAAUUCGUACCAUAGAGAGGUAUCAUCCGCUCACCGAGAUCGGAAGAGCACACGU",0.0146 ± 0.0007
10,"target 1 U8A,G17A (mixed) RNA 1: CACCCGUGCAAAAAUGCAGGGGUCUAAAACUGAGCGGAUAACCUCUCUAUGG RNA 2: GGGAAUGGAUCCACAUCUACGAAUUCGUACCAUAAAGAGGUUAACCGCUCACCGAGAUCGGAAGAGCACACGU",0.092 ± 0.017
11,"target 1 insG 3' of 22,insG 3' of 14 (mixed) RNA 1: CACCCGUGCAAAAAUGCAGGGGUCUAAAACUGAGCGGAUAACCUCUCUAUGG RNA 2: GGGAAUGGAUCCACAUCUACGAAUUCGUACGCAUAGAGAGGGUUAUCCGCUCACCGAGAUCGGAAGAGCACACGU",0.0286 ± 0.0035
12,"target 1 insU 3' of 22,insU 3' of 2 (mixed) RNA 1: CACCCGUGCAAAAAUGCAGGGGUCUAAAACUGAGCGGAUAACCUCUCUAUGG RNA 2: GGGAAUGGAUCCACAUCUACGAAUUCGUACUCAUAGAGAGGUUAUCCGCUCUACCGAGAUCGGAAGAGCACACGU",0.0359 ± 0.0029
13,"target 1 del8,del15 (mixed) RNA 1: CACCCGUGCAAAAAUGCAGGGGUCUAAAACUGAGCGGAUAACCUCUCUAUGG RNA 2: GGGAAUGGAUCCACAUCUACGAAUUCGUACCAUAGAAGGUUACCGCUCACCGAGAUCGGAAGAGCACACGU",0.0378 ± 0.003

# — paper PMC10786891, “Massively parallel profiling of RNA-targeting CRISPR-Cas13d”
